{
  "source": "patent US20030153523",
  "about": "“Methods for identifying RNA binding compounds” (University of Medicine and Dentistry of New Jersey, published 2003)",
  "target": "T1, Tat (48-57) peptide (HIV-1)",
  "T1 chain": "GRKKRRQRRR",
  "data": [
    {"binder": "GGCAGAUCUGAGCCUGGGAGCUCUCUGCC (ssRNA)", "note": "[TAR RNA (wild type)]", "values": [
      {"measurement": "Kd", "value": 727, "unit": "nM"}
    ]}
  ]
}
